Patent US20120237496

Columns and labels:
[1] = tested on: A-beta 1-40 (fluorescein/Lys-biotin labelled synthetic peptide)
[2] = tested on: T1, ANP (fluorescein/Lys-biotin labelled synthetic peptide)
T1 sequence: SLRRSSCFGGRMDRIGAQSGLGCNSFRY

[3] = tested on: Angiotensin (fluorescein/Lys-biotin labelled synthetic peptide)
[4] = tested on: Bradykinin (fluorescein/Lys-biotin labelled synthetic peptide)
[5] = tested on: Endothelin-1 (average of the 1a and 1b isoforms)
[6] = tested on: GIP (fluorescein/Lys-biotin labelled synthetic peptide)
[7] = tested on: GLP-1 (fluorescein/Lys-biotin labelled synthetic peptide)
[8] = tested on: Glucagon (fluorescein/Lys-biotin labelled synthetic peptide)
[9] = tested on: Neurotensin (fluorescein/Lys-biotin labelled synthetic peptide)
[10] = tested on: T2, Somatostatin 1-28 (fluorescein/Lys-biotin labelled synthetic peptide)
T2 sequence: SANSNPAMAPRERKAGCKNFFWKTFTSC

Sequence of GLP-1 (fluorescein/Lys-biotin labelled synthetic peptide) (chain, as listed by the source): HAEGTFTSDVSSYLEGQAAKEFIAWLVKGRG
Sequence of A-beta 1-40 (fluorescein/Lys-biotin labelled synthetic peptide) (peptide, as listed by the source): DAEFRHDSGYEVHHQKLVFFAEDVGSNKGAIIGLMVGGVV
Sequence of Glucagon (fluorescein/Lys-biotin labelled synthetic peptide) (chain, as listed by the source): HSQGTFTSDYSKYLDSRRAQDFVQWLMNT
Sequence of GIP (fluorescein/Lys-biotin labelled synthetic peptide) (chain, as listed by the source): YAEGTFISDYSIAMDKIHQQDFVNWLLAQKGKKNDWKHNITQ

With HSA-Nep-G399V/G714K the kcat/KM [1] was 55000 M⁻¹ s⁻¹, the ratio of kcat/KM, mutant vs wild type [1] was 4.2 and the kcat/KM [2] was 42000 M⁻¹ s⁻¹. It also gave a ratio of kcat/KM, mutant vs wild type [2] of 0.15, a kcat/KM [3] of 14000 M⁻¹ s⁻¹ and a ratio of kcat/KM, mutant vs wild type [3] of 0.012. It also gave a kcat/KM [4] of 85 M⁻¹ s⁻¹, a ratio of kcat/KM, mutant vs wild type [4] of 0.00017 and a kcat/KM [5] of 62000 M⁻¹ s⁻¹. It also gave a ratio of kcat/KM, mutant vs wild type [5] of 0.21, a kcat/KM [6] of 130 M⁻¹ s⁻¹ and a ratio of kcat/KM, mutant vs wild type [6] of 0.28. It also gave a kcat/KM [7] of 36000 M⁻¹ s⁻¹, a ratio of kcat/KM, mutant vs wild type [7] of 0.25 and a kcat/KM [8] of 88000 M⁻¹ s⁻¹. For the same substance, the ratio of kcat/KM, mutant vs wild type [8] was 0.35, the kcat/KM [9] was 2600 M⁻¹ s⁻¹ and the ratio of kcat/KM, mutant vs wild type [9] was 0.004. It also gave a kcat/KM [10] of 3000 M⁻¹ s⁻¹ and a ratio of kcat/KM, mutant vs wild type [10] of 0.0054.
